The nature of the data set: protein stability index of a GFP-peptide fusion (GPS, HEK-293T) (PSI 1-6); higher = more stable.
Where [1] appears, read: treatment: DMSO, c terminus: a fixed tail appended.
Setting [2] is: treatment: MLN4924 1 uM, 8 h, c terminus: a fixed tail appended.
[3] abbreviates: treatment: DMSO, c terminus: native.
The mark [4] stands for this setting: treatment: MLN4924 1 uM, 8 h, c terminus: native.

± gives the standard deviation.
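Further: 24-mer peptide tiles fused after GFP, lentivirally expressed, FACS-sorted into six equal bins by GFP/DsRed ratio, decoded by Illumina sequencing, PSI is the read-weighted mean bin number.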

Consider LDLSKNKLQQLPADFGRLVNLQHL [LRRC59], for which the protein stability index runs as follows: under setting [1], 2.54 ± 0.33; under setting [2], 2.63 ± 0.26.

Turning to GRGLKSHAYIHSVQFSHHVFLNLH [USP39], the protein stability index was 2.84 ± 0.45 under setting [1] and 2.62 ± 0.65 under setting [2].

ETRPAKRITITESNMKSRYTTEFH [WEE1]: the protein stability index runs as follows: under setting [1], 3.49 ± 0.27; under setting [2], 3.6 ± 0.071.

For TFFCPNDTYNDMATLFFNPQESAI [CLCN6], the protein stability index was determined as 2.23 ± 0.32 under setting [1] and 2.26 ± 0.22 under setting [2].

Take QMPQEEVELLPPAPKGKGRKPAAG [BRD3]: the protein stability index was found to be 4.98 ± 0.39 under setting [1] and 5.1 ± 0.18 under setting [2].

Consider LSLGLATVDIQNPDITSSRYRGLP [WAS], for which the protein stability index under setting [1] was 2.96 ± 0.25 and the protein stability index under setting [2] worked out at 3.12 ± 0.22.

On to MKNKNNVTEFILLGLTQNPEGQKV [OR4A15], for which the protein stability index runs as follows: under setting [1], 2.44 ± 0.31; under setting [2], 2.99 ± 0.11.

Turning to QIRTVIQYQTVRYDILPLSPVSRN [CTDNEP1], the protein stability index by setting is: under setting [1], 2.36 ± 0.2; under setting [2], 2.26 ± 0.13.

For the sequence QLVKKLNDSDHQSSTSPLMEGTPT [VPS39], the protein stability index reads like this: under setting [1], 4.87 ± 0.22; under setting [2], 4.9 ± 0.09.

With AERVTLADFKGVLQRPSYKFFFKS [DVL3], the protein stability index stood at 2.29 ± 0.3 under setting [1] and 2.63 ± 0.44 under setting [2].

Turning to PCKQCKKKYVKGDVSLCRWHPKPY [FBXO34], the protein stability index came to 3.09 ± 0.34 under setting [1] and 3.07 ± 0.51 under setting [2].

VDLELFPSPDMECADVPLLTPSSK [ETS1]: the protein stability index runs as follows: under setting [1], 4.07 ± 0.24; under setting [2], 4.05 ± 0.2.

Take KVQKPLLQAPFLPPKAPPPVIKIP [RHOBTB1]: the protein stability index runs as follows: under setting [1], 3.17 ± 0.11; under setting [2], 3.35 ± 0.13.

LLLLLFWGVVSHSFPATLETQEQD [MMP1]: the protein stability index was 2.97 ± 0.58 under setting [1] and 2.76 ± 0.82 under setting [2].

As to EYVLLKALALANSDSVHIEDAEAV [ESRRA], the protein stability index under setting [1] was determined as 3.36 ± 0.33 and the protein stability index under setting [2] amounted to 3.55 ± 0.37.

Take SRSNGSSPEARDARSPSGPSGSLE [TRIM29]: the protein stability index runs as follows: under setting [1], 5.16 ± 0.17; under setting [2], 5.29 ± 0.3.

For GRYSVHNAGISFSVKKQGETVADV [MLH1], the protein stability index came out at 3.79 ± 0.25 under setting [1] and 3.85 ± 0.37 under setting [2].

As for LWRSRVVPDREEGGSGGGGGGDED [SMAD6], the protein stability index under setting [1] was found to be 5.36 ± 0.29 and the protein stability index under setting [2] stood at 5.45 ± 0.14.

PQDGSYPRQADHDDHECCERVVIN [KCNA1]: the protein stability index reads like this: under setting [1], 5.22 ± 0.41; under setting [2], 5.18 ± 0.34.

Regarding KDFLTGMCLFLQSLRQKQPERLCS [GMPPB], the protein stability index by setting is: under setting [1], 2.25 ± 0.44; under setting [2], 2.23 ± 0.36.

Consider DMWRSENQNRAYVTLAAHFLGLGA [ZBED1], for which the protein stability index reads like this: under setting [1], 2.13 ± 0.24; under setting [2], 2.01 ± 0.4.

With APFGRISDARVVKDMATGKSKGYG [TIA1], the protein stability index reads like this: under setting [1], 4.47 ± 0.17; under setting [2], 4.35 ± 0.18.

As to WGYIRYSGQYRELGGAIDFGAAYV [ATL3], the protein stability index was 2.56 ± 0.68 under setting [1] and 2.53 ± 0.69 under setting [2].

VGAAGSARQELLGDRPRWQRLLGE [ANKRD9]: the protein stability index runs as follows: under setting [1], 3.54 ± 0.27; under setting [2], 3.31 ± 0.15.

Turning to EADPPASDLPTPQAIEPQAIVQQV [SNX8], the protein stability index was 5.34 ± 0.11 under setting [1] and 5.2 ± 0.24 under setting [2].

RVMMASASDYFKAMFTGGMKEQDL [KLHL13] had a protein stability index under setting [1] of 2.91 ± 0.58 and a protein stability index under setting [2] of 2.82 ± 0.091.

Take AVKGSLGSDLGGPLPTDPMLGLAL [TSPAN10]: the protein stability index worked out at 3.16 ± 0.17 under setting [1] and 3.06 ± 0.12 under setting [2].

For DIRLTLMEEVLLLGLKDKEGYTSF [GOLPH3L], the protein stability index is, setting by setting: under setting [1], 2.26 ± 0.44; under setting [2], 2.2 ± 0.55.

For the sequence RFVQDLVRALEQEKLQGVECGLR [DAPK3], the protein stability index runs as follows: under setting [3], 2.92 ± 1.3; under setting [4], 2.14 ± 0.067.

Regarding STEVQAHPYSTTFQESASTPETRA [TEKT4], the protein stability index runs as follows: under setting [1], 5.23 ± 0.17; under setting [2], 5.16 ± 0.1.

On to DVVKTQRQVALGAMEAVRVNPLHV [SLC25A39], for which the protein stability index was 3.05 ± 0.22 under setting [1] and 3.23 ± 0.13 under setting [2].

For the sequence KKEEPEPETEAVSSSQEIPTMPQP [ZMYND11], the protein stability index was determined as 5.45 ± 0.47 under setting [1] and 5.55 ± 0.23 under setting [2].

Regarding MVTCKSEFYHDEFKRWIYLNDQNL [GAN], the protein stability index runs as follows: under setting [1], 2.44 ± 0.43; under setting [2], 2.25 ± 0.48.

FMEKRNQWLVSQLSAASPDTGHDS [TRAF3IP2] displayed a protein stability index under setting [1] of 2.76 ± 0.34 and a protein stability index under setting [2] of 3.21 ± 0.58.

Sequence VDLVDESGYVSGYKHAGTYDQKVQ [TPPP] yielded a protein stability index under setting [1] of 4.04 ± 0.32 and a protein stability index under setting [2] of 4.01 ± 0.17.

In the case of EEEEEEEEVDLACTPTDVRDVDI [CCND1], the protein stability index under setting [3] turned out to be 4.5 ± 0.5 and the protein stability index under setting [4] amounted to 5.14 ± 0.34.

TKKRKTFDSSRQRAEGTDIPTVKP [ZC2HC1A] returned a protein stability index under setting [1] of 4.86 ± 0.22 and a protein stability index under setting [2] of 4.79 ± 0.2.

Consider PLNPKPHKKKSPGEKPHRCPQCGK [ZNF449], for which the protein stability index is, setting by setting: under setting [1], 4.24 ± 0.12; under setting [2], 4.49 ± 0.35.

Turning to LKLALDMEIATYRKLLESEECRMS [KRT71], the protein stability index came to 2.79 ± 0.46 under setting [1] and 2.88 ± 0.24 under setting [2].

As for GGQDSFESIESYDSCDRLTQSWSS [ETS1], the protein stability index reads like this: under setting [1], 3.68 ± 0.67; under setting [2], 3.84 ± 0.3.

As for MQERVQRLEAARLSLEEELSRVKA [LRRC45], the protein stability index was determined as 4.25 ± 0.5 under setting [1] and 4.48 ± 0.27 under setting [2].

As to MLWVQRKRRRKETSECPSDKDKSP [C10orf62], the protein stability index under setting [1] was found to be 3.2 ± 0.42 and the protein stability index under setting [2] is 3.66 ± 0.43.

Consider DAFVKIVRHEGTRTLWSGLPATLV [SLC25A39], for which the protein stability index came out at 2.6 ± 0.61 under setting [1] and 2.03 ± 0.22 under setting [2].

The sequence EEAVTVLEDLESELDDPGQPVSLR [ZNF24] returned a protein stability index under setting [1] of 5.58 ± 0.24 and a protein stability index under setting [2] of 5.47 ± 0.21.

As to KEMSKVWNDLRPKLSCLFAGPHST [SNX8], the protein stability index runs as follows: under setting [1], 2.63 ± 0.7; under setting [2], 2.79 ± 0.59.

As for KDMSESQDEVPDEVENQFILRLPL [TAF7L], the protein stability index reads like this: under setting [1], 4.41 ± 0.26; under setting [2], 4.85 ± 0.15.

SFLNVTKSSLIWSYPAGSLTFPVR [TRIM43]: the protein stability index is 1.89 ± 0.045 under setting [1] and 2.17 ± 0.16 under setting [2].

In turn, LGVGLGVEISRRLRHSNPRADPLV [SPNS1] came in with a protein stability index under setting [1] of 3.082 ± 0.029 and a protein stability index under setting [2] of 2.96 ± 0.22.

As to QGRKIAEVCCTSIVYATEKKQTKV [KCTD13], the protein stability index reads like this: under setting [1], 3.39 ± 0.15; under setting [2], 3.61 ± 0.28.

As for NLSKTQNMERFGEDNLEDDDVEMK [CDC14A], the protein stability index by setting is: under setting [1], 5.4 ± 0.061; under setting [2], 5.4 ± 0.12.

Regarding DNIREAFQIYDKEASGYVDRDMFF [EFHC1], the protein stability index was determined as 3.5 ± 0.29 under setting [1] and 3.42 ± 0.18 under setting [2].

On to KPEDTAEDLTAKRKRMKMDKTCSK [FAM9B], for which the protein stability index reads like this: under setting [1], 5.3 ± 0.2; under setting [2], 5.43 ± 0.11.

Consider QPKPLLLPAAPKTQTISSIPPQT [ATF6], for which the protein stability index reads like this: under setting [3], 4.73 ± 0.23; under setting [4], 4.65 ± 0.34.

VQTEDQYQFSYRAALEYLGSFDHY [PTPRD] came in with a protein stability index under setting [1] of 2.22 ± 0.26 and a protein stability index under setting [2] of 2.51 ± 0.22.

LASIFQLAMWTTALLHQAETLQPS [TMEM175] gave a protein stability index under setting [1] of 3.13 ± 0.29 and a protein stability index under setting [2] of 3.13 ± 0.75.

Take DPLTYKSRLMVVVKMDSSIQPGPF [RHOBTB2]: the protein stability index worked out at 2.05 ± 0.53 under setting [1] and 2.08 ± 0.25 under setting [2].

In the case of EGDPGSKQPRKKRGRYRQYNSEIL [LCOR], the protein stability index by setting is: under setting [1], 4.64 ± 0.22; under setting [2], 4.55 ± 0.28.

In the case of GDSASEEKSGSAEPFVLPASSVES [FBXO34], the protein stability index is, setting by setting: under setting [1], 5.39 ± 0.33; under setting [2], 5.42 ± 0.42.

SPPTRPVPGHRSERAIRTQPKQLI [SPRY1]: the protein stability index was 4.04 ± 0.37 under setting [1] and 4.05 ± 0.18 under setting [2].

With LGDPCPMLESPGAPCRSAQASVSC [HDAC6], the protein stability index under setting [1] was determined as 3.94 ± 0.39 and the protein stability index under setting [2] came out at 4.06 ± 0.18.

Regarding DPSKLDSGKELKIDIIPNPQERTL [HSP90AB1], the protein stability index by setting is: under setting [1], 5.15 ± 0.11; under setting [2], 5.31 ± 0.078.

As for KPDSVGLPPCAVRNLQDLARIYIR [PCMTD1], the protein stability index is, setting by setting: under setting [1], 2.94 ± 0.085; under setting [2], 2.85 ± 0.1.

On to VAQGPTNQGLNVMVWNQNGKSPSI [ADAMTSL2], for which the protein stability index reads like this: under setting [1], 3.11 ± 0.4; under setting [2], 3.62 ± 0.23.

Take EKVKACQGQYETIERLRSLSPKIM [TBC1D10A]: the protein stability index is, setting by setting: under setting [1], 3.02 ± 0.28; under setting [2], 3.23 ± 0.16.

Regarding LLPTLYEIHSKTTAYSRLNETQPI [RNF180], the protein stability index was determined as 1.96 ± 0.15 under setting [1] and 2.15 ± 0.41 under setting [2].

As for DASILTEMPTQPGKPLIPPMNRRN [NETO1], the protein stability index by setting is: under setting [1], 4.45 ± 0.25; under setting [2], 4.64 ± 0.13.

Turning to QVKASSPVPATPILQLEECCTHNN [TRIM9], the protein stability index is, setting by setting: under setting [1], 4.9 ± 0.21; under setting [2], 4.923 ± 0.028.

YALRAYLGYQAVPSGSSGSLSTSS [CEBPB]: the protein stability index is 2.23 ± 0.28 under setting [1] and 2.36 ± 0.3 under setting [2].

Regarding AAKRMRLEIYQSSQDEPIALDKQH [NOL4L], the protein stability index reads like this: under setting [1], 3.59 ± 0.27; under setting [2], 3.88 ± 0.25.

As to ARNIGFKVNSKKMLGKYNTPVSYR [ACSBG2], the protein stability index worked out at 2.32 ± 0.37 under setting [1] and 2.55 ± 0.14 under setting [2].

In the case of CTMEPEPVQPGMLIDVCKYLGSLQ [TRIM35], the protein stability index came to 2.43 ± 0.13 under setting [1] and 2.41 ± 0.22 under setting [2].

For LLLSFWKETDPLTFNFISSLKAIC [PLD5], the protein stability index reads like this: under setting [1], 3.47 ± 0.96; under setting [2], 2.44 ± 0.12.

(Values after the supplement of paper PMC10567573.)
